Earlier results as cited in patent US20100086958A1, “NOVEL ENZYME” (priority 2008, published 2010).
Where two headings read alike, the source gives them in different places.

What was measured:
[1] = literature, cited from earlier work; for Km: read-out: Km NAD^+
[2] = literature, cited from earlier work; for Km: read-out: Km NADP^+
[3] = unit = μmol formate oxidized per min; literature; cited from earlier work
[4] = ADHs (DroADH, SceADH), AlaDHs, GAPDH

Row | Molecule | kcat NAD^+ [1, 4] [s⁻¹] | Km [1, 4] [µM] | kcat NAD^+ ([1]; PTDH) [s⁻¹] | Km ([1]; PTDH) [µM] | kcat NADP^+ ([2]; PTDH) [s⁻¹] | Km ([2]; PTDH) [µM] | also measured
1 | WT_BstGAPDH: wild type glyceraldehydes-3-phosphate dehydrogenase from Bacillus stearothermophilus (protein, UniProt P00362 2-335, looked up) Glyceraldehyde-3-phosphate …: AVKVGINGFGRIGRNVFRAALKNPDIEVVAVNDLTDANTLAHLLKYDSVHGRLDAEVSVNGNNLVVNGKEIIVKAERDPENLAWGEIGVDIVVESTGRFTKREDAAKHLEAGAKKVIISAPAKNEDITIVMGVNQDKYDPKAHHVISNASCTTNCLAPFAKVLHEQFGIVRGMMTTVHSYTNDQRILDLPHKDLRRARAAAESIIPTTTGAAKAVALVLPELKGKLNGMAMRVPTPNVSVVDLVAELEKEVTVEEVNAALKAAAEGELKGILAYSEEPLVSRDYNGSTVSSTIDALSTMVIDGKMVKVVSWYDNETGYSHRVVDLAAYIASKGL | 280 | 150 |  |  |  |  | 
2 | WT_17β-HSDHs: wild type human estrogenic 17β-hydroxysteroid dehydrogenase (protein, UniProt P14061 2-328, looked up) 17-beta-hydroxysteroid …: ARTVVLITGCSSGIGLHLAVRLASDPSQSFKVYATLRDLKTQGRLWEAARALACPPGSLETLQLDVRDSKSVAAARERVTEGRVDVLVCNAGLGLLGPLEALGEDAVASVLDVNVVGTVRMLQAFLPDMKRRGSGRVLVTGSVGGLMGLPFNDVYCASKFALEGLCESLAVLLLPFGVHLSLIECGPVHTAFMEKVLGSPEEVLDRTDIHTFHRFYQYLAHSKQVFREAAQNPEEVAEVFLTALRAPKPTLRYFTTERFLPLLRMRLDDPSGSNYVTAMHREVFGDVPAKAEAGAEAGGGAGPGAEDEAGRGAVGDPELGDPPAAPQ |  |  |  |  |  |  | kcat NAD^+ ([1]; 17β-HSDHs): 7.5 ± 0.1 s⁻¹; Km ([1]; 17β-HSDHs): 11.8 ± 0.8 µM; kcat NADP^+ ([2]; 17β-HSDHs): 4.2 ± 0.2 s⁻¹
3 | L36D 17β-HSDHs: L36D mutant of human estrogenic 17β-hydroxysteroid dehydrogenase (protein, UniProt P14061 2-328, looked up, variant L36D) 17-beta-hydroxysteroid …: ARTVVLITGCSSGIGLHLAVRLASDPSQSFKVYATDRDLKTQGRLWEAARALACPPGSLETLQLDVRDSKSVAAARERVTEGRVDVLVCNAGLGLLGPLEALGEDAVASVLDVNVVGTVRMLQAFLPDMKRRGSGRVLVTGSVGGLMGLPFNDVYCASKFALEGLCESLAVLLLPFGVHLSLIECGPVHTAFMEKVLGSPEEVLDRTDIHTFHRFYQYLAHSKQVFREAAQNPEEVAEVFLTALRAPKPTLRYFTTERFLPLLRMRLDDPSGSNYVTAMHREVFGDVPAKAEAGAEAGGGAGPGAEDEAGRGAVGDPELGDPPAAPQ |  |  |  |  |  |  | kcat NAD^+ ([1]; 17β-HSDHs): 13.9 ± 0.8 s⁻¹; Km ([1]; 17β-HSDHs): 83 ± 5 µM; kcat NADP^+ ([2]; 17β-HSDHs): 16.7 ± 2.2 s⁻¹
4 | WT_SceADH: wild type ADH from Saccharomyces cerevisiae (protein, UniProt P00330 2-348, looked up) Alcohol dehydrogenase 1: SIPETQKGVIFYESHGKLEYKDIPVPKPKANELLINVKYSGVCHTDLHAWHGDWPLPVKLPLVGGHEGAGVVVGMGENVKGWKIGDYAGIKWLNGSCMACEYCELGNESNCPHADLSGYTHDGSFQQYATADAVQAAHIPQGTDLAQVAPILCAGITVYKALKSANLMAGHWVAISGAAGGLGSLAVQYAKAMGYRVLGIDGGEGKEELFRSIGGEVFIDFTKEKDIVGAVLKATDGGAHGVINVSVSEAAIEASTRYVRANGTTVLVGMPAGAKCCSDVFNQVVKSISIVGSYVGNRADTREALDFFARGLVKSPIKVVGLSTLPEIYEKMEKGQIVGRYVVDTSK | 360 | 160 |  |  |  |  | 
5 | CboFDH: wild type FDH from Candida Boidinii, Seq ID No: 13 (protein, listed as Candida boidinii) MKIVLVLYDAGKHAADEEKLYGCTENKLGIANWLKDQGHELITTSDKEGGNSVLDQHIPDADIIITTPFHPAYITKERIDKAKKLKLVVVAGVGSDHIDLDYINQTGKKISVLEVTGSNVVSVAEHVVMTMLVLVRNFVPAHEQIINHDWEVAAIAKDAYDIEGKTIATIGAGRIGYRVLERLVPFNPKELLYYDYQALPKDAEEKVGARRVENIEELVAQADIVTVNAPLHAGTKGLINKELLSKFKKGAWLVNTARGAICVAEDVAAALESGQLRGYGGDVWFPQPAPKDHPWRDMRNKYGAGNAMTPHYSGTTLDAQTRYAQGTKNILESFFTGKFDYRPQDIILLNGEYVTKAYGKHDKK |  |  |  |  |  |  | activity with NADP^+ [3]: 0.0013 U/mg; activity with NAD^+ [3]: 2.2 U/mg
6 | WT_DroADH: wild type ADH from Drosophila (protein, UniProt P00334 2-256, looked up) Alcohol dehydrogenase: SFTLTNKNVIFVAGLGGIGLDTSKELLKRDLKNLVILDRIENPAAIAELKAINPKVTVTFYPYDVTVPIAETTKLLKTIFAQLKTVDVLINGAGILDDHQIERTIAVNYTGLVNTTTAILDFWDKRKGGPGGIICNIGSVTGFNAIYQVPVYSGTKAAVVNFTSSLAKLAPITGVTAYTVNPGITRTTLVHKFNSWLDVEPQVAEKLLAHPTQPSLACAENFVKAIELNQNGAIWKLDLGTLEAIQWTKHWDSGI | 10.2 | 48 ± 1 |  |  |  |  | kcat NADP^+ [2, 4]: 0.715 s⁻¹; Km [2, 4]: 3090 ± 700 µM
7 | A46R DroADH: A46R mutant of ADH from Drosophila (protein, UniProt P00334 2-256, looked up, variant A46R) Alcohol dehydrogenase: SFTLTNKNVIFVAGLGGIGLDTSKELLKRDLKNLVILDRIENPARIAELKAINPKVTVTFYPYDVTVPIAETTKLLKTIFAQLKTVDVLINGAGILDDHQIERTIAVNYTGLVNTTTAILDFWDKRKGGPGGIICNIGSVTGFNAIYQVPVYSGTKAAVVNFTSSLAKLAPITGVTAYTVNPGITRTTLVHKFNSWLDVEPQVAEKLLAHPTQPSLACAENFVKAIELNQNGAIWKLDLGTLEAIQWTKHWDSGI | 7.3 | 57 ± 3 |  |  |  |  | kcat NADP^+ [2, 4]: 1.9 s⁻¹; Km [2, 4]: 1270 ± 100 µM
8 | WT_PstXDH: wild type xylitol dehydrogenase from Pichia stipitis (protein, UniProt P22144 1-363, looked up) D-xylulose reductase: MTANPSLVLNKIDDISFETYDAPEISEPTDVLVQVKKTGICGSDIHFYAHGRIGNFVLTKPMVLGHESAGTVVQVGKGVTSLKVGDNVAIEPGIPSRFSDEYKSGHYNLCPHMAFAATPNSKEGEPNPPGTLCKYFKSPEDFLVKLPDHVSLELGALVEPLSVGVHASKLGSVAFGDYVAVFGAGPVGLLAAAVAKTFGAKGVIVVDIFDNKLKMAKDIGAATHTFNSKTGGSEELIKAFGGNVPNVVLECTGAEPCIKLGVDAIAPGGRFVQVGNAAGPVSFPITVFAMKELTLFGSFRYGFNDYKTAVGIFDTNYQNGRENAPIDFEQLITHRYKFKDAIEAYDLVRAGKGAVKCLIDGPE |  |  |  |  |  |  | kcat NAD^+ ([1]; ADHs (KlADH III), G6PDHs, XDHs): 17.5 ± 0.5 s⁻¹; Km ([1]; ADHs (KlADH III), G6PDHs, XDHs): 381 ± 30 µM; kcat NADP^+ ([2]; ADHs (KlADH III), G6PDHs, XDHs): 1.83 ± 0.167 s⁻¹
9 | WT_PstPTDH: wild type phosphate dehydrogenase from Pseudomonas stutzeri (protein, UniProt O69054 1-336, looked up) Phosphonate dehydrogenase: MLPKLVITHRVHDEILQLLAPHCELMTNQTDSTLTREEILRRCRDAQAMMAFMPDRVDADFLQACPELRVVGCALKGFDNFDVDACTARGVWLTFVPDLLTVPTAELAIGLAVGLGRHLRAADAFVRSGEFQGWQPQFYGTGLDNATVGILGMGAIGLAMADRLQGWGATLQYHEAKALDTQTEQRLGLRQVACSELFASSDFILLALPLNADTQHLVNAELLALVRPGALLVNPCRGSVVDEAAVLAALERGQLGGYAADVFEMEDWARADRPRLIDPALLAHPNTLFTPHIGSAVRAVRLEIERCAAQNIIQVLAGARPINAANRLPKAEPAAC |  |  | 2.93 ± 0.14 | 53 ± 9 | 1.41 ± 0.0083 | 2510 ± 410 | 
10 | A176R PstPTDH: A176R mutant of phosphate dehydrogenase from Pseudomonas stutzeri (protein, UniProt O69054 1-336, looked up, variant A176R) Phosphonate dehydrogenase: MLPKLVITHRVHDEILQLLAPHCELMTNQTDSTLTREEILRRCRDAQAMMAFMPDRVDADFLQACPELRVVGCALKGFDNFDVDACTARGVWLTFVPDLLTVPTAELAIGLAVGLGRHLRAADAFVRSGEFQGWQPQFYGTGLDNATVGILGMGAIGLAMADRLQGWGATLQYHERKALDTQTEQRLGLRQVACSELFASSDFILLALPLNADTQHLVNAELLALVRPGALLVNPCRGSVVDEAAVLAALERGQLGGYAADVFEMEDWARADRPRLIDPALLAHPNTLFTPHIGSAVRAVRLEIERCAAQNIIQVLAGARPINAANRLPKAEPAAC |  |  | 4.28 ± 0.0083 | 60 ± 7 | 2.18 ± 0.0067 | 77 ± 8.4 | 
11 | E175A/A176R PstPTDH: E175A/A176R mutant of phosphate dehydrogenase from Pseudomonas stutzeri (protein, UniProt O69054 1-336, looked up, variant E175A A176R) Phosphonate dehydrogenase: MLPKLVITHRVHDEILQLLAPHCELMTNQTDSTLTREEILRRCRDAQAMMAFMPDRVDADFLQACPELRVVGCALKGFDNFDVDACTARGVWLTFVPDLLTVPTAELAIGLAVGLGRHLRAADAFVRSGEFQGWQPQFYGTGLDNATVGILGMGAIGLAMADRLQGWGATLQYHARKALDTQTEQRLGLRQVACSELFASSDFILLALPLNADTQHLVNAELLALVRPGALLVNPCRGSVVDEAAVLAALERGQLGGYAADVFEMEDWARADRPRLIDPALLAHPNTLFTPHIGSAVRAVRLEIERCAAQNIIQVLAGARPINAANRLPKAEPAAC |  |  | 3.94 ± 0.0083 | 20 ± 1.3 | 1.9 ± 0.0083 | 3.5 ± 0.5 | 
12 | E175A PstPTDH: E175A mutant of phosphate dehydrogenase from Pseudomonas stutzeri (protein, UniProt O69054 1-336, looked up, variant E175A) Phosphonate dehydrogenase: MLPKLVITHRVHDEILQLLAPHCELMTNQTDSTLTREEILRRCRDAQAMMAFMPDRVDADFLQACPELRVVGCALKGFDNFDVDACTARGVWLTFVPDLLTVPTAELAIGLAVGLGRHLRAADAFVRSGEFQGWQPQFYGTGLDNATVGILGMGAIGLAMADRLQGWGATLQYHAAKALDTQTEQRLGLRQVACSELFASSDFILLALPLNADTQHLVNAELLALVRPGALLVNPCRGSVVDEAAVLAALERGQLGGYAADVFEMEDWARADRPRLIDPALLAHPNTLFTPHIGSAVRAVRLEIERCAAQNIIQVLAGARPINAANRLPKAEPAAC |  |  | 3.5 ± 0.005 | 16 ± 0.8 | 2.18 ± 0.0067 | 144 ± 14 | 
